A short description of this data set: self-splicing fitness, log relative to wild type (ln ratio); higher = more splicing; Tetrahymena group I intron in knt gene, E. coli kanamycin selection, DiMSum; sequences stand for … in CUCUCU…GGAGGGAAAAGUUAUCAGGCAUGCACCUGGUAGCUAGUCUUUAAACCAAUAGAUUGCAUCGGUUUAAAAGGCAAGACCGUCAAAUUGCGGGAAAGGGGUCAACAGCCGUUCAGUACCAAGUCUCAGGGGAAACUUUGAGAUGGCCUUGCAAAGGGUAUGGUAAUAAGCUGACGGACAUGGUCCUAACCACGCAGCCAAGUCCUAAGUCAACAGAUCUUCUGUUGAUAUGGAUGCAGUUCACAGACUAAAUGUCGGUCGGGGAAGAUGUAUUCUUCUCAUAAGAUAUAGUCGGACCUCUCCUUAAUGGGAGCUAGCGGAUGAAGUGAUGCAACACUGGAGCCGCUGGGAACUAAUUUGUAUGCGAAAGUAUAUUGAUUAGUUUUGGAGUACUCGUGGUCG
Summed up: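 Fitness was computed with DiMSum as the error-weighted combination of replicate fold changes, kanamycin versus none, each normalised to wild type. The library randomised all eight intron nucleotides of the P1ex region, with the intron placed in the knt kanamycin-resistance gene on pET-22b(+) in E. coli BL21(DE3). Six replicate transformations were grown overnight at 37°C or 30°C on LB agar with or without 25 μg/mL kanamycin, plus 100 μg/mL carbenicillin, 50 μM IPTG and 0.2% rhamnose. Pooled colonies were amplicon-sequenced on an Illumina HiSeq 2500.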

± gives the uncertainty stated by the source.

With CUUAAGCAAUAUUACGGGAA, the “self-splicing fitness (ln)” value (30 °C) is -2.9 ± 0.3 and the “self-splicing fitness (ln)” value (37 °C) was -2.85 ± 0.32.
In the case of UCCGAGCAAUAUUACGUAAA, the “self-splicing fitness (ln)” value (30 °C) was -2.8 ± 0.28.
On to ACCGAGCAAUAUUACGCAUG, for which the “self-splicing fitness (ln)” value runs as follows: (30 °C) -2.69 ± 0.13; (37 °C) -2.47 ± 0.21.
On the same counts, the results for UGCGAGCAAUAUUACGUAAU are -2.35 ± 0.22 and -1.91 ± 0.24.
In the same order, the values of ACGCAGCAAUAUUACGUCCG are -0.744 ± 0.085 and -0.408 ± 0.1.
In the same order, the values of AGCAAGCAAUAUUACGCUGA are -2.22 ± 0.14 and -2.07 ± 0.17.
In the case of CGCCAGCAAUAUUACGGACG, the “self-splicing fitness (ln)” value is, setting by setting: (30 °C) -4.63 ± 0.31; (37 °C) -2.95 ± 0.28.
With AAAUAGCAAUAUUACGCAUG, the “self-splicing fitness (ln)” value is -1.27 ± 0.11 (30 °C) and -1.03 ± 0.12 (37 °C).
On the same counts, the results for UAGAAGCAAUAUUACGAUAC are -2.87 ± 0.32 and -2.46 ± 0.27.
In the same order, the values of GGAUAGCAAUAUUACGCUCA are 0.156 ± 0.15 and -0.278 ± 0.15.
On the same counts, the results for GUGUAGCAAUAUUACGGCUG are -3.23 ± 0.23 and -1.28 ± 0.25.
In the case of AGCAAGCAAUAUUACGAGCA, the “self-splicing fitness (ln)” value is, setting by setting: (30 °C) -0.456 ± 0.14; (37 °C) -0.101 ± 0.14.
In the same order, the values of AUUGAGCAAUAUUACGUGUU are -3.91 ± 0.22 and -2.34 ± 0.14.
In the same order, the values of GCCCAGCAAUAUUACGCAGC are -1.83 ± 0.12 and -1.38 ± 0.13.
Turning to UGGAAGCAAUAUUACGCACA, the “self-splicing fitness (ln)” value (30 °C) was -1.44 ± 0.2 and the “self-splicing fitness (ln)” value (37 °C) was 0.0258 ± 0.2.
In the same order, the values of ACAAAGCAAUAUUACGUGAA are -1.51 ± 0.074 and -1.5 ± 0.083.
In the same order, the values of GGCUAGCAAUAUUACGUUGC are -1.94 ± 0.17 and -1.38 ± 0.2.
On the same counts, the results for AGACAGCAAUAUUACGUGAG are -1.67 ± 0.056 and -0.569 ± 0.087.
As to ACGAAGCAAUAUUACGUCAC, the “self-splicing fitness (ln)” value runs as follows: (30 °C) -4.98 ± 0.39; (37 °C) -2.43 ± 0.16.
AGACAGCAAUAUUACGAAAU: the “self-splicing fitness (ln)” value is -2.88 ± 0.17 (30 °C) and -1.43 ± 0.14 (37 °C).
In the same order, the values of CGCCAGCAAUAUUACGGUCC are -0.387 ± 0.13 and -0.161 ± 0.16.
On to CGAAAGCAAUAUUACGCAUC, for which, for the setting “37 °C”, the “self-splicing fitness (ln)” value is -2.75 ± 0.36.
On to UCAUAGCAAUAUUACGUCUC, for which the “self-splicing fitness (ln)” value (30 °C) is -1.43 ± 0.32.
Take AUUAAGCAAUAUUACGACGU: the “self-splicing fitness (ln)” value runs as follows: (30 °C) 0.564 ± 0.087; (37 °C) 0.495 ± 0.093.
On to CGGCAGCAAUAUUACGGCCU, for which the “self-splicing fitness (ln)” value is -1.23 ± 0.092 (30 °C) and -0.41 ± 0.088 (37 °C).
On the same counts, the results for UCCAAGCAAUAUUACGCGGU are -2.56 ± 0.13 and -1.92 ± 0.16.
Regarding UGCGAGCAAUAUUACGGGCU, the “self-splicing fitness (ln)” value (30 °C) is -2.97 ± 0.25.
Regarding UAAGAGCAAUAUUACGUCGU, the “self-splicing fitness (ln)” value is, setting by setting: (30 °C) -4.06 ± 0.31; (37 °C) -3.11 ± 0.43.
In the same order, the values of CGUAAGCAAUAUUACGACAU are -3.255 ± 0.022 and -1.8 ± 0.035.
On the same counts, the results for UAACAGCAAUAUUACGGUCC are -2.94 ± 0.15 and -1.99 ± 0.19.
As to CCGUAGCAAUAUUACGGGCU, the “self-splicing fitness (ln)” value runs as follows: (30 °C) -2.94 ± 0.16; (37 °C) -2.27 ± 0.21.
In the same order, the values of CGAGAGCAAUAUUACGUAGC are -4.39 ± 0.42 and -2.52 ± 0.27.
Consider UGGUAGCAAUAUUACGGAGA, for which the “self-splicing fitness (ln)” value (37 °C) is -1.24 ± 0.2.
Take AUAGAGCAAUAUUACGCCGA: the “self-splicing fitness (ln)” value (30 °C) was -1.81 ± 0.19 and the “self-splicing fitness (ln)” value (37 °C) was -0.0699 ± 0.32.
Consider GCCUAGCAAUAUUACGCAAU, for which the “self-splicing fitness (ln)” value is -0.932 ± 0.14 (30 °C) and -0.245 ± 0.17 (37 °C).
In the same order, the values of GCGGAGCAAUAUUACGAAAC are -3.16 ± 0.31 and -0.996 ± 0.24.
On the same counts, the results for AUUUAGCAAUAUUACGAUCC are -0.5 ± 0.4 and -0.408 ± 0.23.
Regarding UAGUAGCAAUAUUACGGAAG, the “self-splicing fitness (ln)” value (37 °C) was -1.83 ± 0.23.
On to UAUAAGCAAUAUUACGAUAU, for which the “self-splicing fitness (ln)” value is -2.9 ± 0.21 (30 °C) and -1.96 ± 0.2 (37 °C).
UUGCAGCAAUAUUACGCCCU: the “self-splicing fitness (ln)” value (30 °C) is 0.32 ± 0.46.
Regarding CCAGAGCAAUAUUACGAAUG, the “self-splicing fitness (ln)” value by setting is: (30 °C) -1.73 ± 0.097; (37 °C) -0.868 ± 0.12.
On the same counts, the results for UGAUAGCAAUAUUACGGAUA are -3.57 ± 0.25 and -1.6 ± 0.19.
As to GUGCAGCAAUAUUACGGUGU, the “self-splicing fitness (ln)” value was -3.08 ± 0.11 (30 °C) and -1.74 ± 0.12 (37 °C).
For the sequence UUUUAGCAAUAUUACGCCCG, the “self-splicing fitness (ln)” value (30 °C) was -0.629 ± 0.33.
Regarding UCGCAGCAAUAUUACGUUAA, the “self-splicing fitness (ln)” value (30 °C) is -2.18 ± 0.12 and the “self-splicing fitness (ln)” value (37 °C) is -1 ± 0.096.
In the same order, the values of UAAUAGCAAUAUUACGGGCU are -3.28 ± 0.27 and -2.16 ± 0.19.
In the same order, the values of CAAGAGCAAUAUUACGGUUC are -3.57 ± 0.24 and -2.34 ± 0.25.
In the same order, the values of AAAAAGCAAUAUUACGUGUA are -1.78 ± 0.089 and -1.33 ± 0.085.
Consider ACAGAGCAAUAUUACGCUCU, for which the “self-splicing fitness (ln)” value is -3.01 ± 0.24 (30 °C) and -2.41 ± 0.49 (37 °C).
In the same order, the values of GGGAAGCAAUAUUACGCAAG are -2.81 ± 0.16 and -1.14 ± 0.14.
Take UGUCAGCAAUAUUACGACGU: the “self-splicing fitness (ln)” value is, setting by setting: (30 °C) -1.31 ± 0.098; (37 °C) -0.968 ± 0.14.
With GCUUAGCAAUAUUACGGCCA, the “self-splicing fitness (ln)” value (37 °C) was -0.846 ± 0.27.
On to CAAAAGCAAUAUUACGGAAU, for which the “self-splicing fitness (ln)” value (30 °C) is -3.21 ± 0.21 and the “self-splicing fitness (ln)” value (37 °C) is -2.56 ± 0.17.
CUGUAGCAAUAUUACGAAUG: the “self-splicing fitness (ln)” value (30 °C) is -1.12 ± 0.081 and the “self-splicing fitness (ln)” value (37 °C) is 0.429 ± 0.11.
Turning to CCCUAGCAAUAUUACGAAUA, the “self-splicing fitness (ln)” value is, setting by setting: (30 °C) -1.47 ± 0.3; (37 °C) -1.79 ± 0.39.
In the same order, the values of AUAAAGCAAUAUUACGGUCG are 0.114 ± 0.059 and -0.114 ± 0.083.
In the same order, the values of AGAUAGCAAUAUUACGGAUC are -1.92 ± 0.21 and -0.641 ± 0.2.
In the same order, the values of CUGGAGCAAUAUUACGGUAU are -4.78 ± 0.41 and -2.49 ± 0.31.
On to UGGAAGCAAUAUUACGUGCG, for which the “self-splicing fitness (ln)” value is -0.442 ± 0.054 (30 °C) and 0.0701 ± 0.075 (37 °C).
On the same counts, the results for GUAAAGCAAUAUUACGGUGA are -0.896 ± 0.084 and -0.575 ± 0.1.
Regarding GCCAAGCAAUAUUACGCUGG, the “self-splicing fitness (ln)” value was -4.4 ± 0.28 (30 °C) and -2.37 ± 0.18 (37 °C).
For UGUCAGCAAUAUUACGAAUA, the “self-splicing fitness (ln)” value runs as follows: (30 °C) -0.932 ± 0.14; (37 °C) -1.03 ± 0.11.
On the same counts, the results for GCAUAGCAAUAUUACGUAGC are -4.39 ± 0.26 and -2.15 ± 0.16.
On the same counts, the results for CACCAGCAAUAUUACGUGCG are -0.627 ± 0.04 and -0.299 ± 0.056.
On the same counts, the results for CGUUAGCAAUAUUACGCCUU are -3.33 ± 0.43 and -2.18 ± 0.19.
On to AUCCAGCAAUAUUACGGGAU, for which the “self-splicing fitness (ln)” value was -3.75 ± 0.28 (30 °C) and -2.9 ± 0.36 (37 °C).
On the same counts, the results for UGAUAGCAAUAUUACGUAGA are -2.3 ± 0.15 and -0.984 ± 0.17.
In the same order, the values of UCCGAGCAAUAUUACGCGCA are -0.129 ± 0.15 and -0.252 ± 0.14.
Turning to GGGGAGCAAUAUUACGGGAA, the “self-splicing fitness (ln)” value (37 °C) was -1.38 ± 0.49.
For the sequence GGAGAGCAAUAUUACGGAAG, the “self-splicing fitness (ln)” value reads like this: (30 °C) -2.47 ± 0.32; (37 °C) -0.843 ± 0.41.
Consider UCGCAGCAAUAUUACGUGAA, for which the “self-splicing fitness (ln)” value runs as follows: (30 °C) -1.32 ± 0.078; (37 °C) -0.713 ± 0.086.
In the same order, the values of CCGAAGCAAUAUUACGGACU are -2.33 ± 0.32 and -2.2 ± 0.34.
On the same counts, the results for UCGAAGCAAUAUUACGCCUU are -3.4 ± 0.25 and -3.23 ± 0.26.
In the same order, the values of CUCCAGCAAUAUUACGUCGA are -4.42 ± 0.27 and -2.73 ± 0.17.
As to GACUAGCAAUAUUACGGGUC, the “self-splicing fitness (ln)” value reads like this: (30 °C) -3.22 ± 0.19; (37 °C) -2.71 ± 0.28.
In the same order, the values of CCUGAGCAAUAUUACGCUUA are -2.31 ± 0.24 and -2.27 ± 0.39.
In the same order, the values of GAAAAGCAAUAUUACGAUUG are -2.27 ± 0.13 and -1.52 ± 0.14.
On the same counts, the results for CCUUAGCAAUAUUACGGCUA are -2.52 ± 0.45 and -1.75 ± 0.37.

These data come from the supplement of paper PMC7877785.
